Experimental data reported in PMC13601591 (Nature Communications, 2026).

Biological target: the molecule itself
Test: SDS-resistant oligomer on SDS-PAGE and immunoblot

B1: fh1-HAP2-HA (HAP2 with W173A and F177A mutations in the fusion loop) (natural protein, Chlamydomonas reinhardtii, UniProt A4GRC6 23-1139, looked up)
chain: EVIASGRLEKCVVDGVTEELDCQEKVVVTLTVGNGQSLQTEALEFSLSCLNSPDGRCPCSCSAADPTCACRDLAAPLRVSLTKSPLWASYPLQYLSSFNWKPLEVILRPSNKVCKDGDWEDSPTCGWFSQGGVRVADSQGFCCECSSSQVADDTAGSSKERTRANLDCDFWSDPLDILIGRKPVSAHCLTFDPQWYSGYELGAASLQFEIAITVEVPTAPSPTTATTSATPRTNNSSSANSTNSTNSPAPQFLSPPAPSTREVLHLGPSVPLASSASRLLSAKLLGDLAMYTQLPAISNQVLMVPQPPAAAAATGSPLDATLATNRSAWMLLDKTMLSMDGLACDKVGTGFSAFRYQPSGCGRAPQACLSGQLKDLWEADLARIADGRVPLYMITRFTGGSDTTLQSFSGGPLSFALPVTSHSQSLVTLSVAADGVRLVTNRSPGKITGAAVCRFAGTSCGGFEAVAARGYIYVNITNTGRLDSDYTLTVSNCSSNVRPIEARTLAVRAGSAASLDPPMELYVEDQAAAAARTCTVSLYDSVGAVTDSLTLSFYTNATQLVVKPSGGYNGTGDGAGVKRNGTDCSTACTNPIDVLCFVTKKCWSKFGRLLGIIGGALVGLGLLAVALKFGWLASLAASCCGGGGGAAAGGAGGGMGLGTGGGGGCFGGGQQQQQLPPAASHAMSPPQQQQRSHAEVAAGAAVAGAGAAGAAAAVLGAKHGGGGGGARGKQQHADTRHLQDRDSRAIDGGASIGSSSAGGSSSLSSYSQPREAGGRLLQPPAAAVFVPEGGGGGAAGDEGARAQSSDWDARGRSPRVADEHGSPRQRYDGVRQSPYMVSANPYDGWYDGGSGGGGGGGGGGYGREAPPPQGPPPHPVGAPPPPPRRRSLWERMWLQRPGGGGGGGGGGGGGGGGGSGGGVDQHGGRSCADAARRGGGGPGGMRGVEGLMSNGGRPNGPHPHAPPPPPPPQQQQQQQRQRRSFLESLTAMMTLPWGGGREEEAGGDRRGGGRGGAAAAHGGRGAGGGRGHPPSIGSPPPGPLQPPEYGPQGGQARRWGAGGGRGGVGGDGGGGGVGAAAYVQLSTGGRGGGGGGGRGRGGGREGPTWHNPVYDWQAPPK
stoichiometry N: 3
